Results taken from the supplement of paper PMC5998384.

Key:
HeLa Kyoto [1] = assay: thermal stability score vs G1/S (z-score of summed log2 fold changes over temperatures); higher = more thermally stable than in G1/S
HeLa Kyoto [2] = assay: solubility in G1/S (NP-40 vs SDS abundance) (log2 ratio); higher = more soluble; settings: cell cycle stage: G1/S
HeLa Kyoto [3] = assay: melting temperature (median over replicates), in situ; higher = more thermally stable
HeLa Kyoto [4] = assay: solubility change mitosis vs G1/S (difference of NP-40 vs SDS log2 ratios) (log2 ratio difference); higher = more soluble in mitosis
[5] = cell cycle stage: early G1 (4.5 h after nocodazole release)
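Wherever melting temperature (median over replicates), in situ is given: HeLa Kyoto cells synchronized by double thymidine or nocodazole block, proteins quantified by TMT10plex mass spectrometry, three independent biological replicates.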
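Wherever solubility change mitosis vs G1/S (difference of NP-40 vs SDS log2 ratios) is given: synchronized HeLa Kyoto cells (double thymidine block for G1/S, nocodazole release for mitosis), protein amounts in NP-40 versus SDS lysates quantified by mass spectrometry, three biological replicates.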
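Wherever solubility in G1/S (NP-40 vs SDS abundance) is given: HeLa Kyoto cells arrested at G1/S by double thymidine block, proteins quantified by TMT10plex mass spectrometry in mild NP-40 versus SDS extracts, three biological replicates.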
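Wherever thermal stability score vs G1/S (z-score of summed log2 fold changes over temperatures) is given: synchronized HeLa Kyoto cells, proteins quantified by TMT10plex mass spectrometry, three biological replicates, mitosis taken 0.5 h after nocodazole release, G1/S directly after double thymidine block.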

Sequence	thermal stability score (HeLa Kyoto [1]; [5])	thermal stability score (HeLa Kyoto [1]; cell cycle stage: mitosis)	solubility in G1/S (log2) (HeLa Kyoto [2])	melting temperature (HeLa Kyoto [3]; cell cycle stage: G1/S) [°C]	melting temperature (HeLa Kyoto [3]; cell cycle stage: mitosis) [°C]	solubility change mitosis (log2) (HeLa Kyoto [4])
MNVNQSVPPVPPFGQPQPIYPGYHQSSYGGQSGSTAPAIPYGAYNGPVPGYQQTPPQGMSRAPPSSGAPPASTAQAPCGQAAYGQFGQGDVQNGPSSTVQMQRLPGSQPFGSPLAPVGNQPPVLQPYGPPPTSAQVATQLSGMQISGAVAPAPPSSGLGFGPPTSLASASGSFPNSGLYGSYPQGQAPPLSQAQGHPGIQTPQRSAPSQASSFTPPASGGPRLPSMTGPLLPGQSFGGPSVSQPNHVSSPPQALPPGTQMTGPLGPLPPMHSPQQPGYQPQQNGSFGPARGPQSNYGGPYPAAPTFGSQPGPPQPLPPKRLDPDAIPSPIQVIEDDRNNRGTEPFVTGVRGQVPPLVTTNFLVKDQGNASPRYIRCTSYNIPCTSDMAKQAQVPLAAVIKPLARLPPEEASPYVVDHGESGPLRCNRCKAYMCPFMQFIEGGRRFQCCFCSCINDVPPQYFQHLDHTGKRVDAYDRPELSLGSYEFLATVDYCKNNKFPSPPAFIFMIDVSYNAIRTGLVRLLCEELKSLLDFLPREGGAEESAIRVGFVTYNKVLHFYNVKSSLAQPQMMVVSDVADMFVPLLDGFLVNVNESRAVITSLLDQIPEMFADTRETETVFVPVIQAGMEALKAAECAGKLFLFHTSLPIAEAPGKLKNRDDRKLINTDKEKTLFQPQTGAYQTLAKECVAQGCCVDLFLFPNQYVDVATLSVVPQLTGGSVYKYASFQVENDQERFLSDLRRDVQKVVGFDAVMRVRTSTGIRAVDFFGAFYMSNTTDVELAGLDGDKTVTVEFKHDDRLNEESGALLQCALLYTSCAGQRRLRIHNLALNCCTQLADLYRNCETDTLINYMAKFAYRGVLNSPVKAVRDTLITQCAQILACYRKNCASPSSAGQLILPECMKLLPVYLNCVLKSDVLQPGAEVTTDDRAYVRQLVTSMDVTETNVFFYPRLLPLTKSPVESTTEPPAVRASEERLSNGDIYLLENGLNLFLWVGASVQQGVVQSLFSVSSFSQITSGLSVLPVLDNPLSKKVRGLIDSLRAQRSRYMKLTVVKQEDKMEMLFKHFLVEDKSLSGGASYVDFLCHMHKEIRQLLS [SEC24C]	1.19	1.53	0.0263	50.6	50.3	-0.121
MPKPINVRVTTMDAELEFAIQPNTTGKQLFDQVVKTVGLREVWFFGLQYVDSKGYSTWLKLNKKVTQQDVKKENPLQFKFRAKFFPEDVSEELIQEITQRLFFLQVKEAILNDEIYCPPETAVLLASYAVQAKYGDYNKEIHKPGYLANDRLLPQRVLEQHKLTKEQWEERIQNWHEEHRGMLREDSMMEYLKIAQDLEMYGVNYFEIKNKKGTELWLGVDALGLNIYEHDDKLTPKIGFPWSEIRNISFNDKKFVIKPIDKKAPDFVFYAPRLRINKRILALCMGNHELYMRRRKPDTIEVQQMKAQAREEKHQKQLERAQLENEKKKREIAEKEKERIEREKEELMERLKQIEEQTIKAQKELEEQTRKALELDQERKRAKEEAERLEKERRAAEEAKSAIAKQAADQMKNQEQLAAELAEFTAKIALLEEAKKKKEEEATEWQHKAFAAQEDLEKTKEELKTVMSAPPPPPPPPVIPPTENEHDEHDENNAEASAELSNEGVMNHRSEEERVTETQKNERVKKQLQALSSELAQARDETKKTQNDVLHAENVKAGRDKYKTLRQIRQGNTKQRIDEFEAM [RDX]	0.702	0.805	0.0601	57.1	56.4	0.0339
MRQKRKGDLSPAELMMLTIGDVIKQLIEAHEQGKDIDLNKVKTKTAAKYGLSAQPRLVDIIAAVPPQYRKVLMPKLKAKPIRTASGIAVVAVMCKPHRCPHISFTGNICVYCPGGPDSDFEYSTQSYTGYEPTSMRAIRARYDPFLQTRHRIEQLKQLGHSVDKVEFIVMGGTFMALPEEYRDYFIRNLHDALSGHTSNNIYEAVKYSERSLTKCIGITIETRPDYCMKRHLSDMLTYGCTRLEIGVQSVYEDVARDTNRGHTVKAVCESFHLAKDSGFKVVAHMMPDLPNVGLERDIEQFTEFFENPAFRPDGLKLYPTLVIRGTGLYELWKSGRYKSYSPSDLVELVARILALVPPWTRVYRVQRDIPMPLVSSGVEHGNLRELALARMKDLGIQCRDVRTREVGIQEIHHKVRPYQVELVRRDYVANGGWETFLSYEDPDQDILIGLLRLRKCSEETFRFELGGGVSIVRELHVYGSVVPVSSRDPTKFQHQGFGMLLMEEAERIAREEHGSGKIAVISGVGTRNYYRKIGYRLQGPYMVKMLK [ELP3]	0.13	-1.12	-0.062	51.9	51.4	-0.0597
MVLESVARIVKVQLPAYLKRLPVPESITGFARLTVSEWLRLLPFLGVLALLGYLAVRPFLPKKKQQKDSLINLKIQKENPKVVNEINIEDLCLTKAAYCRCWRSKTFPACDGSHNKHNELTGDNVGPLILKKKEV [CISD2]	-4.5	-5.22	0.0551	54.2	54.7	0.0164
MESMFSSPAEAALQRETGVPGLLTPLPDLDGVYELERVAGFVRDLGCERVALQFPDQLLGDAVAVAARLEETTGSKMFILGDTAYGSCCVDVLGAEQAGAQALIHFGPACLSPPARPLPVAFVLRQRSVALELCVKAFEAQNPDPKAPVVLLSEPACAHALEALATLLRPRYLDLLVSSPAFPQPVGSLSPEPMPLERFGRRFPLAPGRRLEEYGAFYVGGSKASPDPDLDPDLSRLLLGWAPGQPFSSCCPDTGKTQDEGARAGRLRARRRYLVERARDARVVGLLAGTLGVAQHREALAHLRNLTQAAGKRSYVLALGRPTPAKLANFPEVDVFVLLACPLGALAPQLSGSFFQPILAPCELEAACNPAWPPPGLAPHLTHYADLLPGSPFHVALPPPESELWETPDVSLITGDLRPPPAWKSSNDHGSLALTPRPQLELAESSPAASFLSSRSWQGLEPRLGQTPVTEAVSGRRGIAIAYEDEGSG [DPH2]	-0.452	-1.28	0.268	53.9	53.4	-0.0726
MAVTDSLSRAATVLATVLLLSFGSVAASHIEDQAEQFFRSGHTNNWAVLVCTSRFWFNYRHVANTLSVYRSVKRLGIPDSHIVLMLADDMACNPRNPKPATVFSHKNMELNVYGDDVEVDYRSYEVTVENFLRVLTGRIPPSTPRSKRLLSDDRSNILIYMTGHGGNGFLKFQDSEEITNIELADAFEQMWQKRRYNELLFIIDTCQGASMYERFYSPNIMALASSQVGEDSLSHQPDPAIGVHLMDRYTFYVLEFLEEINPASQTNMNDLFQVCPKSLCVSTPGHRTDLFQRDPKNVLITDFFGSVRKVEITTETIKLQQDSEIMESSYKEDQMDEKLMEPLKYAEQLPVAQIIHQKPKLKDWHPPGGFILGLWALIIMVFFKTYGIKHMKFIF [PIGK]	1.4	0.424	-0.134	53.5	53.5	-0.0814
MSSVAVLTQESFAEHRSGLVPQQIKVATLNSEEESDPPTYKDAFPPLPEKAACLESAQEPAGAWGNKIRPIKASVITQVFHVPLEERKYKDMNQFGEGEQAKICLEIMQRTGAHLELSLAKDQGLSIMVSGKLDAVMKARKDIVARLQTQASATVAIPKEHHRFVIGKNGEKLQDLELKTATKIQIPRPDDPSNQIKITGTKEGIEKARHEVLLISAEQDKRAVERLEVEKAFHPFIAGPYNRLVGEIMQETGTRINIPPPSVNRTEIVFTGEKEQLAQAVARIKKIYEEKKKKTTTIAVEVKKSQHKYVIGPKGNSLQEILERTGVSVEIPPSDSISETVILRGEPEKLGQALTEVYAKANSFTVSSVAAPSWLHRFIIGKKGQNLAKITQQMPKVHIEFTEGEDKITLEGPTEDVNVAQEQIEGMVKDLINRMDYVEINIDHKFHRHLIGKSGANINRIKDQYKVSVRIPPDSEKSNLIRIEGDPQGVQQAKRELLELASRMENERTKDLIIEQRFHRTIIGQKGERIREIRDKFPEVIINFPDPAQKSDIVQLRGPKNEVEKCTKYMQKMVADLVENSYSISVPIFKQFHKNIIGKGGANIKKIREESNTKIDLPAENSNSETIIITGKRANCEAARSRILSIQKDLANIAEVEVSIPAKLHNSLIGTKGRLIRSIMEECGGVHIHFPVEGSGSDTVVIRGPSSDVEKAKKQLLHLAEEKQTKSFTVDIRAKPEYHKFLIGKGGGKIRKVRDSTGARVIFPAAEDKDQDLITIIGKEDAVREAQKELEALIQNLDNVVEDSMLVDPKHHRHFVIRRGQVLREIAEEYGGVMVSFPRSGTQSDKVTLKGAKDCVEAAKKRIQEIIEDLEAQVTLECAIPQKFHRSVMGPKGSRIQQITRDFSVQIKFPDREENAVHSTEPVVQENGDEAGEGREAKDCDPGSPRRCDIIIISGRKEKCEAAKEALEALVPVTIEVEVPFDLHRYVIGQKGSGIRKMMDEFEVNIHVPAPELQSDIIAITGLAANLDRAKAGLLERVKELQAEQEDRALRSFKLSVTVDPKYHPKIIGRKGAVITQIRLEHDVNIQFPDKDDGNQPQDQITITGYEKNTEAARDAILRIVGELEQMVSEDVPLDHRVHARIIGARGKAIRKIMDEFKVDIRFPQSGAPDPNCVTVTGLPENVEEAIDHILNLEEEYLADVVDSEALQVYMKPPAHEEAKAPSRGFVVRDAPWTASSSEKAPDMSSSEEFPSFGAQVAPKTLPWGPKR [HDLBP]	1.14	3.41	0.183	46.8	47.6	-0.084
